Measurements: publication PMC2213610 (The Journal of Cell Biology, 2008)

B1: His6-VASP-AAA (natural protein)
chain: MSETVICSSRATVMLYDDGNKRWLPAGTGPQAFSRVQIYHNPTANSFRVVGRKMQPDQQVVINCAIVRGVKYNQATPNFHQWRDARQVWGLNFGSKEDAAQFAAGMASALEALEGGGPPPPPALPTWSVPNGPSPEEVEQQKRQQPGPSEHIERRVANAGGPPAPPAGGPPPPPGPPPPPGPPPPPGLPPSGVPAAAHGAGGGPPPAPPLPAAQGPGGGGAGAPGLAAAIAGAKLRKVAKQEEASGGPTAPKAESGRSGGGGLMEEMNAMLARRRKAAQVGEKTPKDESANQEEPEARVPAQSESVRRPWEKNSTTLPRMKSSSSVTTSETQPCTPSSSDYSDLQRVKQELLEEVKKELQKVKEEIIEAFVQELRKRGSP
B2: His6-VASP-AAE, purified recombinant (natural protein)
chain: MSETVICSSRATVMLYDDGNKRWLPAGTGPQAFSRVQIYHNPTANSFRVVGRKMQPDQQVVINCAIVRGVKYNQATPNFHQWRDARQVWGLNFGSKEDAAQFAAGMASALEALEGGGPPPPPALPTWSVPNGPSPEEVEQQKRQQPGPSEHIERRVANAGGPPAPPAGGPPPPPGPPPPPGPPPPPGLPPSGVPAAAHGAGGGPPPAPPLPAAQGPGGGGAGAPGLAAAIAGAKLRKVAKQEEASGGPTAPKAESGRSGGGGLMEEMNAMLARRRKAEQVGEKTPKDESANQEEPEARVPAQSESVRRPWEKNSTTLPRMKSSSSVTTSETQPCTPSSSDYSDLQRVKQELLEEVKKELQKVKEEIIEAFVQELRKRGSP
B3: His6-VASP-ADA, purified recombinant (natural protein)
chain: MSETVICSSRATVMLYDDGNKRWLPAGTGPQAFSRVQIYHNPTANSFRVVGRKMQPDQQVVINCAIVRGVKYNQATPNFHQWRDARQVWGLNFGSKEDAAQFAAGMASALEALEGGGPPPPPALPTWSVPNGPSPEEVEQQKRQQPGPSEHIERRVANAGGPPAPPAGGPPPPPGPPPPPGPPPPPGLPPSGVPAAAHGAGGGPPPAPPLPAAQGPGGGGAGAPGLAAAIAGAKLRKVDKQEEASGGPTAPKAESGRSGGGGLMEEMNAMLARRRKAAQVGEKTPKDESANQEEPEARVPAQSESVRRPWEKNSTTLPRMKSSSSVTTSETQPCTPSSSDYSDLQRVKQELLEEVKKELQKVKEEIIEAFVQELRKRGSP
B4: VASP peptide F8 with G181 changed to alanine (peptide)
peptide: PPPPGPPPPPAPPPP
B5: VASP peptide F8 (peptide)
peptide: PPPPGPPPPPGPPPP
B6: VASP peptide F8 with P171 changed to alanine (peptide)
peptide: APPPGPPPPPGPPPP
B7: VASP peptide F8 with G175 changed to alanine (peptide)
peptide: PPPPAPPPPPGPPPP
B8: VASP peptide F8 with P174 changed to alanine (peptide)
peptide: PPPAGPPPPPGPPPP
B9: VASP peptide F8 with P172 changed to alanine (peptide)
peptide: PAPPGPPPPPGPPPP
B10: VASP peptide F8 with P182 changed to alanine (peptide)
peptide: PPPPGPPPPPGAPPP
B11: VASP peptide F2 (peptide)
peptide: PPAGGPPPPPGPPPP
B12: VASP peptide F8 with P173 changed to alanine (peptide)
peptide: PPAPGPPPPPGPPPP
B13: VASP peptide F8 with P184 changed to alanine (peptide)
peptide: PPPPGPPPPPGPPAP
B14: VASP peptide F8 with P183 changed to alanine (peptide)
peptide: PPPPGPPPPPGPAPP
B15: VASP peptide F8 with P185 changed to alanine (peptide)
peptide: PPPPGPPPPPGPPPA

The binders below were run against T1, GST-SPCN_SH3 (UniProt Q13813 970-1025) (assay: pull-down).
B1: binds. B2: binds. B3: binds.

Each binder was assayed against T1, GST-SPCN_SH3 (assay: peptide or protein array).
B4: binds. B5: binds. B6: binds. B7: binds. B8: binds. B9: binds. B10: binds. B11: binds. B12: binds. B13: binds. B14: binds. B15: binds.
